Reference: article PMC9866879, “BREVIPEDICELLUS Positively Regulates Salt-Stress Tolerance in Arabidopsis thaliana”

T1: BP (B…US) (Arabidopsis thaliana, UniProt P46639 1-398)
T1 sequence: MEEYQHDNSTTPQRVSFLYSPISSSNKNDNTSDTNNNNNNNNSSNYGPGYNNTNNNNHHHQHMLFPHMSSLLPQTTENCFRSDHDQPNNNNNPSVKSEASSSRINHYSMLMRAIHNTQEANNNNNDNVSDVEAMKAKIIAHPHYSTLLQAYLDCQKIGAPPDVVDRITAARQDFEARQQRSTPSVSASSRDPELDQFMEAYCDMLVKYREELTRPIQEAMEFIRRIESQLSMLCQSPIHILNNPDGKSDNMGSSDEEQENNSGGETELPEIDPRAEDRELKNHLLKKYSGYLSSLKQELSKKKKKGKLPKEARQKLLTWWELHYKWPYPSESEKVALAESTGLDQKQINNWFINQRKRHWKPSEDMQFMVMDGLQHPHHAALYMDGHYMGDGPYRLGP


Key:
BP (B…US) [1] = biological target: T1, BP (B…US); test: competition; unlabeled competitor against biotin-labelled N1; signal gradually decreased; LightShift Chemiluminescent EMSA kit (Thermo) per manufacturer's protocol; buffer, salt, pH and temperature not stated; conditions: protein: recombinant; tags: GST (pGEX4T-3); blunt
BP (B…US) [2] = biological target: T1, BP (B…US); test: EMSA; LightShift Chemiluminescent EMSA kit (Thermo) per manufacturer's protocol; buffer, salt, pH and temperature not stated; conditions: protein: recombinant; tags: GST (pGEX4T-3); label: biotin; blunt

Binder | binding result (BP (B…US) [1]) | binding result (BP (B…US) [2])
XTH7 promoter probe, unlabeled competitor (dsDNA) DNA 1: TGTAATGCTGACACGTGTCCCAGT DNA 2: ACTGGGACACGTGTCAGCATTACA | binds | –
XTH7 promoter probe (TGAC) (dsDNA) DNA 1: TGTAATGCTGACACGTGTCCCAGT DNA 2: ACTGGGACACGTGTCAGCATTACA | – | binds
